Data: the supplement of paper PMC7877785
± gives the uncertainty stated by the source.

Experiment: self-splicing fitness, log relative to wild type (ln ratio); higher = more splicing; Tetrahymena group I intron in knt gene, E. coli kanamycin selection, DiMSum; sequences stand for … in CUCUCU…GGAGGGAAAAGUUAUCAGGCAUGCACCUGGUAGCUAGUCUUUAAACCAAUAGAUUGCAUCGGUUUAAAAGGCAAGACCGUCAAAUUGCGGGAAAGGGGUCAACAGCCGUUCAGUACCAAGUCUCAGGGGAAACUUUGAGAUGGCCUUGCAAAGGGUAUGGUAAUAAGCUGACGGACAUGGUCCUAACCACGCAGCCAAGUCCUAAGUCAACAGAUCUUCUGUUGAUAUGGAUGCAGUUCACAGACUAAAUGUCGGUCGGGGAAGAUGUAUUCUUCUCAUAAGAUAUAGUCGGACCUCUCCUUAAUGGGAGCUAGCGGAUGAAGUGAUGCAACACUGGAGCCGCUGGGAACUAAUUUGUAUGCGAAAGUAUAUUGAUUAGUUUUGGAGUACUCGUGGUCG
Summary of the method: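 Colonies from six replicate transformations of E. coli BL21(DE3) were pooled and amplicon-sequenced on an Illumina HiSeq 2500. The library placed an intron with all eight P1ex-region nucleotides randomised inside the knt kanamycin-resistance gene on pET-22b(+), and cells grew overnight at 37°C or 30°C on LB agar with or without 25 μg/mL kanamycin (plus 100 μg/mL carbenicillin, 50 μM IPTG, 0.2% rhamnose). Fitness is the DiMSum error-weighted combination of wild-type-normalised replicate fold changes, kanamycin versus none.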

| Sequence | self-splicing fitness (ln) (30 °C) | self-splicing fitness (ln) (37 °C) |
| --- | --- | --- |
| GCACAGCAAUAUUACGCUUU | -0.861 ± 0.055 | -0.0512 ± 0.068 |
| GCACAGCAAUAUUACGGAUG | -2.18 ± 0.075 | -1.61 ± 0.096 |
| GCACAGCAAUAUUACGGCAC | -0.752 ± 0.061 | -0.122 ± 0.073 |
| GCACAGCAAUAUUACGGCCU | -1.66 ± 0.11 | -0.461 ± 0.12 |
| GCACAGCAAUAUUACGGGGA | -2.29 ± 0.11 | -1.5 ± 0.1 |
| GCACAGCAAUAUUACGGGUC | -3.81 ± 0.17 | -1.62 ± 0.097 |
| GCACAGCAAUAUUACGGUAG | -3.61 ± 0.15 | -1.98 ± 0.11 |
| GCACAGCAAUAUUACGGUUC | -0.415 ± 0.055 | -0.0499 ± 0.073 |
| GCACAGCAAUAUUACGUACU | -1.2 ± 0.069 | -1.2 ± 0.094 |
| GCACAGCAAUAUUACGUCAA | -0.993 ± 0.079 | -0.565 ± 0.082 |
| GCACAGCAAUAUUACGUCUC | -0.14 ± 0.056 | 0.38 ± 0.059 |
| GCACAGCAAUAUUACGUGUU | -3.75 ± 0.089 | -2.07 ± 0.085 |
| GCACAGCAAUAUUACGUUGC | -3.95 ± 0.17 | -2.57 ± 0.17 |
| GCAGAGCAAUAUUACGAGAU | -2.04 ± 0.29 | -2.15 ± 0.39 |
| GCAGAGCAAUAUUACGAGCU | -4.1 ± 0.42 | -1.17 ± 0.26 |
| GCAGAGCAAUAUUACGAGUG | -4.02 ± 0.48 | -2.25 ± 0.26 |
| GCAGAGCAAUAUUACGAUGU | -4.4 ± 0.34 | -2.42 ± 0.19 |
| GCAGAGCAAUAUUACGCAAC | -1.53 ± 0.35 | -2.13 ± 0.43 |
| GCAGAGCAAUAUUACGCAAU |  | -1.61 ± 0.28 |
| GCAGAGCAAUAUUACGCGCA | -2.97 ± 0.24 | -1.61 ± 0.17 |
| GCAGAGCAAUAUUACGGAGA |  | -2.09 ± 0.43 |
| GCAGAGCAAUAUUACGGAUC | -2.59 ± 0.34 | -1.6 ± 0.29 |
| GCAGAGCAAUAUUACGGCAU | -3.03 ± 0.17 | -0.473 ± 0.11 |
| GCAGAGCAAUAUUACGGCUU | -1.92 ± 0.27 | -0.671 ± 0.21 |
| GCAGAGCAAUAUUACGGUUG | -3.01 ± 0.34 | -2.87 ± 0.47 |
| GCAGAGCAAUAUUACGUCAA | -2.73 ± 0.45 |  |

| Sequence | self-splicing fitness (ln) (30 °C) | self-splicing fitness (ln) (37 °C) |
| --- | --- | --- |
| GCAGAGCAAUAUUACGUGAG | -1.62 ± 0.08 | -1.65 ± 0.1 |
| GCAGAGCAAUAUUACGUGCU | -3.24 ± 0.15 | -2.73 ± 0.22 |
| GCAGAGCAAUAUUACGUGUG | -2.07 ± 0.22 | -2.63 ± 0.25 |
| GCAGAGCAAUAUUACGUUAG | -3.42 ± 0.26 | -1.61 ± 0.17 |
| GCAUAGCAAUAUUACGACAU | -1.03 ± 0.013 | -0.295 ± 0.032 |
| GCAUAGCAAUAUUACGACGG |  | -1.01 ± 0.41 |
| GCAUAGCAAUAUUACGAGCC | -2.61 ± 0.2 | -2.49 ± 0.33 |
| GCAUAGCAAUAUUACGAGGG | -3.43 ± 0.23 | -1.69 ± 0.17 |
| GCAUAGCAAUAUUACGAUGA | -0.554 ± 0.079 | 0.0691 ± 0.07 |
| GCAUAGCAAUAUUACGCAAG | -3.49 ± 0.41 | -2.31 ± 0.33 |
| GCAUAGCAAUAUUACGCAGC |  | -1.68 ± 0.44 |
| GCAUAGCAAUAUUACGCCAU | -4.39 ± 0.46 | -2.23 ± 0.28 |
| GCAUAGCAAUAUUACGCCCU | -1.78 ± 0.35 | -0.121 ± 0.33 |
| GCAUAGCAAUAUUACGCCUG | -1.22 ± 0.081 | -1.49 ± 0.1 |
| GCAUAGCAAUAUUACGCGCC | -3.02 ± 0.49 | -1.93 ± 0.36 |
| GCAUAGCAAUAUUACGCUGG |  | -2.15 ± 0.49 |
| GCAUAGCAAUAUUACGGCAC | -1.15 ± 0.14 | -0.425 ± 0.15 |
| GCAUAGCAAUAUUACGGGAU | -1.41 ± 0.085 | -0.646 ± 0.11 |
| GCAUAGCAAUAUUACGGGCC |  | -1.97 ± 0.27 |
| GCAUAGCAAUAUUACGGGGG | -2.53 ± 0.23 | -2.13 ± 0.23 |
| GCAUAGCAAUAUUACGGUGC | -3.71 ± 0.46 |  |
| GCAUAGCAAUAUUACGGUUA | -1.34 ± 0.093 | -0.638 ± 0.084 |
| GCAUAGCAAUAUUACGUAGA | -2.41 ± 0.16 | -0.999 ± 0.17 |
| GCAUAGCAAUAUUACGUGUG | -3.17 ± 0.14 | -1.57 ± 0.12 |
| GCAUAGCAAUAUUACGUUCG | -1.43 ± 0.08 | 0.166 ± 0.09 |
